T1: human RXFP1 (human, UniProt Q9HBX9 1-757)
T1 sequence (looked up): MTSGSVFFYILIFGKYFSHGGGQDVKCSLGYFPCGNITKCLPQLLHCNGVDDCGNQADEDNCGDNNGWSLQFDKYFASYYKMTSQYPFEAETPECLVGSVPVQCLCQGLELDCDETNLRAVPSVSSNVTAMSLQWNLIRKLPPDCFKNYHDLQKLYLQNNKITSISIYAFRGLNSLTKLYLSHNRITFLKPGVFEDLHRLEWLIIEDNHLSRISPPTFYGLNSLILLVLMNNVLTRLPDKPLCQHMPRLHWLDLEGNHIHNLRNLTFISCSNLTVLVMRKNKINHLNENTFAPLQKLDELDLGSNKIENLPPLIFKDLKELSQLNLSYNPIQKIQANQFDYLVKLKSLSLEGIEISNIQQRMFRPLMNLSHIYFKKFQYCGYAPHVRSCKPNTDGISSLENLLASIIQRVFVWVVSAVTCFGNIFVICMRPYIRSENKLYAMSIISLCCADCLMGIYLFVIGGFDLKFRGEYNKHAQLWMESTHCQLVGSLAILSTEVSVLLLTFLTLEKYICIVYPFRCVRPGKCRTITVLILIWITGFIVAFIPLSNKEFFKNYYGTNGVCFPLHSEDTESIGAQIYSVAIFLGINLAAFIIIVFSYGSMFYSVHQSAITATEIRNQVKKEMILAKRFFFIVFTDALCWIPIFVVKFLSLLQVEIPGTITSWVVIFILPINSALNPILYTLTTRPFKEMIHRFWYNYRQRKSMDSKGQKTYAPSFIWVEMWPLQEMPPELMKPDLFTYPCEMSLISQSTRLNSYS


Target: T1, human RXFP1
Test: cell-based or functional assay

Binder	Potency (cAMP, transient hRXFP1 in HEK293)
SEQ ID NO: 368 (Fc fusion) DKTHTCPPCPAPEAAGGPSVFLFPPKPKDTLMISRTPEVTCVVVDVSHEDPEVKFNWYVDGVEVHNAKTKPREEQYNSTYRVVSVLTVLHQDWLNGKEYKCKVSNKALAAPIEKTISKAKGQPREPQVYTLPPSRDELTKNQVSLTCLVKGFYPSDIAVEWESNGQPENNYKTTPPVLDSDGSFFLYSKLTVDKSRWQQGNVFSCSVLHEALHSHYTQKSLSLSPGGGSDSWQEEVIKLCGRELVRAQIAICGKSTGGEGGGEEGGGEGGQLYSALANKCCHVGCTKRSLARFC	101 nM
SEQ ID NO: 315 (Fc fusion) DKTHTCPPCPAPEAAGGPSVFLFPPKPKDTLMISRTPEVTCVVVDVSHEDPEVKFNWYVDGVEVHNAKTKPREEQYNSTYRVVSVLTVLHQDWLNGKEYKCKVSNKALAAPIEKTISKAKGQPREPQVYTLPPSRDELTKNQVSLTCLVKGFYPSDIAVEWESNGQPENNYKTTPPVLDSDGSFFLYSKLTVDKSRWQQGNVFSCSVLHEALHSHYTQKSLSLSPGGGSDSWQEEVIKLCGRELVRAQIAICGKSTGGGEGGGEGGGEGRQLYSALANKCCHVGCTKRSLARFC	3.3 nM
SEQ ID NO: 325 (Fc fusion) DKTHTCPPCPAPEAAGGPSVFLFPPKPKDTLMISRTPEVTCVVVDVSHEDPEVKFNWYVDGVEVHNAKTKPREEQYNSTYRVVSVLTVLHQDWLNGKEYKCKVSNKALAAPIEKTISKAKGQPREPQVYTLPPSRDELTKNQVSLTCLVKGFYPSDIAVEWESNGQPENNYKTTPPVLDSDGSFFLYSKLTVDKSRWQQGNVFSCSVLHEALHSHYTQKSLSLSPGGGSDSWQEEVIKLCGRELVRAQIAICGKSTGGGEEGGGEEGGGRQLYSALANKCCHVGCTKRSLAQFC	23.4 nM
SEQ ID NO: 361 (Fc fusion) DKTHTCPPCPAPEAAGGPSVFLFPPKPKDTLMISRTPEVTCVVVDVSHEDPEVKFNWYVDGVEVHNAKTKPREEQYNSTYRVVSVLTVLHQDWLNGKEYKCKVSNKALAAPIEKTISKAKGQPREPQVYTLPPSRDELTKNQVSLTCLVKGFYPSDIAVEWESNGQPENNYKTTPPVLDSDGSFFLYSKLTVDKSRWQQGNVFSCSVLHEALHSHYTQKSLSLSPGKGGSDSWKEEVIKLCGRELVRAQIAICGKSTGGGEGGGEGGGEGRQLYSALANKCCHVGCTKRSLARFC	2.5 nM
SEQ ID NO: 304 (Fc fusion) DKTHTCPPCPAPEAAGGPSVFLFPPKPKDTLMISRTPEVTCVVVDVSHEDPEVKFNWYVDGVEVHNAKTKPREEQYNSTYRVVSVLTVLHQDWLNGKEYKCKVSNKALAAPIEKTISKAKGQPREPQVYTLPPSRDELTKNQVSLTCLVKGFYPSDIAVEWESNGQPENNYKTTPPVLDSDGSFFLYSKLTVDKSRWQQGNVFSCSVLHEALHSHYTQKSLSLSPGKGGSDSWQEEVIKLCGRELVRAQIAICGKSTGGGEGGGEGGGEGRQLYSALANKCCHVGCTKRSLARFC	2.5 nM
SEQ ID NO: 363 (Fc fusion) DKTHTCPPCPAPEAAGGPSVFLFPPKPKDTLMISRTPEVTCVVVDVSHEDPEVKFNWYVDGVEVHNAKTKPREEQYNSTYRVVSVLTVLHQDWLNGKEYKCKVSNKALAAPIEKTISKAKGQPREPQVYTLPPSRDELTKNQVSLTCLVKGFYPSDIAVEWESNGQPENNYKTTPPVLDSDGSFFLYSKLTVDKSRWQQGNVFSCSVLHEALHSHYTQKSLSLSPGKGGSDSWMEEVIKLCGRELVRAQIAICGKSTGGGEGGGEGGGEGRQLYSALANKCCHVGCTKRSLARFC	2.9 nM
SEQ ID NO: 365 (Fc fusion) DKTHTCPPCPAPEAAGGPSVFLFPPKPKDTLMISRTPEVTCVVVDVSHEDPEVKFNWYVDGVEVHNAKTKPREEQYNSTYRVVSVLTVLHQDWLNGKEYKCKVSNKALAAPIEKTISKAKGQPREPQVYTLPPSRDELTKNQVSLTCLVKGFYPSDIAVEWESNGQPENNYKTTPPVLDSDGSFFLYSKLTVDKSRWQQGNVFSCSVLHEALHSHYTQKSLSLSPGKGGSDSWMEEVIKLCGRELVRAQIAICGKSTGGEGGGEEGGGEGGQLYSALANKCCHVGCTKRSLARFC	60.3 nM
SEQ ID NO: 364 (Fc fusion) DKTHTCPPCPAPEAAGGPSVFLFPPKPKDTLMISRTPEVTCVVVDVSHEDPEVKFNWYVDGVEVHNAKTKPREEQYNSTYRVVSVLTVLHQDWLNGKEYKCKVSNKALAAPIEKTISKAKGQPREPQVYTLPPSRDELTKNQVSLTCLVKGFYPSDIAVEWESNGQPENNYKTTPPVLDSDGSFFLYSKLTVDKSRWQQGNVFSCSVLHEALHSHYTQKSLSLSPGKGGSDSWMEEVIKLCGRELVRAQIAICGKSTGGGEGGGEGGGEGGGQLYSALANKCCHVGCTKRSLARFC	16 nM
SEQ ID NO: 369 (Fc fusion) DKTHTCPPCPAPEAAGGPSVFLFPPKPKDTLMISRTPEVTCVVVDVSHEDPEVKFNWYVDGVEVHNAKTKPREEQYNSTYRVVSVLTVLHQDWLNGKEYKCKVSNKALAAPIEKTISKAKGQPREPQVYTLPPSRDELTKNQVSLTCLVKGFYPSDIAVEWESNGQPENNYKTTPPVLDSDGSFFLYSKLTVDKSRWQQGNVFSCSVLHEALHSHYTQKSLSLSPGKGGSDSWKEEVIKLCGRELVRAQIAICGKSTASDAAGANANAGARQLYSALANKCCHVGCTKRSLAQFC	0.5 nM

Next, values leading:

Potency (cAMP, transient hRXFP1 in HEK293)	Binder
5.8 nM	SEQ ID NO: 319 (Fc fusion) DKTHTCPPCPAPEAAGGPSVFLFPPKPKDTLMISRTPEVTCVVVDVSHEDPEVKFNWYVDGVEVHNAKTKPREEQYNSTYRVVSVLTVLHQDWLNGKEYKCKVSNKALAAPIEKTISKAKGQPREPQVYTLPPSRDELTKNQVSLTCLVKGFYPSDIAVEWESNGQPENNYKTTPPVLDSDGSFFLYSKLTVDKSRWQQGNVFSCSVLHEALHSHYTQKSLSLSPGKGGSDSWQEEVIKLCGRELVRAQIAICGKSTGGGEEGGGEEGGGRQLYSALANKCCHVGCTKRSLARFC
10.2 nM	SEQ ID NO: 321 (Fc fusion) DKTHTCPPCPAPEAAGGPSVFLFPPKPKDTLMISRTPEVTCVVVDVSHEDPEVKFNWYVDGVEVHNAKTKPREEQYNSTYRVVSVLTVLHQDWLNGKEYKCKVSNKALAAPIEKTISKAKGQPREPQVYTLPPSRDELTKNQVSLTCLVKGFYPSDIAVEWESNGQPENNYKTTPPVLDSDGSFFLYSKLTVDKSRWQQGNVFSCSVLHEALHSHYTQKSLSLSPGKGGSDSWQEEVIKLCGRELVRAQIAICGKSTGGGEEGGGEEGGGRQLYSALANKCCHVGCTKRSLAQFC
18.9 nM	SEQ ID NO: 326 (Fc fusion) DKTHTCPPCPAPEAAGGPSVFLFPPKPKDTLMISRTPEVTCVVVDVSHEDPEVKFNWYVDGVEVHNAKTKPREEQYNSTYRVVSVLTVLHQDWLNGKEYKCKVSNKALAAPIEKTISKAKGQPREPQVYTLPPSRDELTKNQVSLTCLVKGFYPSDIAVEWESNGQPENNYKTTPPVLDSDGSFFLYSKLTVDKSRWQQGNVFSCSVLHEALHSHYTQKSLSLSPGKGGSDSWQEEVIKLCGRELVRAQIAICGKSTGGEGEGGEGEGGSRQLYSALANKCCHVGCTKRSLAQFC
62.8 nM	SEQ ID NO: 366 (Fc fusion) DKTHTCPPCPAPEAAGGPSVFLFPPKPKDTLMISRTPEVTCVVVDVSHEDPEVKFNWYVDGVEVHNAKTKPREEQYNSTYRVVSVLTVLHQDWLNGKEYKCKVSNKALAAPIEKTISKAKGQPREPQVYTLPPSRDELTKNQVSLTCLVKGFYPSDIAVEWESNGQPENNYKTTPPVLDSDGSFFLYSKLTVDKSRWQQGNVFSCSVLHEALHSHYTQKSLSLSPGKGGSDSWQEEVIKLCGRELVRAQIAICGKSTGGEGGGEEGGGEGGQLYSALANKCCHVGCTKRSLARFC
12.3 nM	SEQ ID NO: 362 (Fc fusion) DKTHTCPPCPAPEAAGGPSVFLFPPKPKDTLMISRTPEVTCVVVDVSHEDPEVKFNWYVDGVEVHNAKTKPREEQYNSTYRVVSVLTVLHQDWLNGKEYKCKVSNKALAAPIEKTISKAKGQPREPQVYTLPPSRDELTKNQVSLTCLVKGFYPSDIAVEWESNGQPENNYKTTPPVLDSDGSFFLYSKLTVDKSRWQQGNVFSCSVLHEALHSHYTQKSLSLSPGKGGSDSWKEEVIKLCGRELVRAQIAICGKSTGGGEGGGEGGGEGGGQLYSALANKCCHVGCTKRSLARFC
15.8 nM	SEQ ID NO: 307 (Fc fusion) DKTHTCPPCPAPEAAGGPSVFLFPPKPKDTLMISRTPEVTCVVVDVSHEDPEVKFNWYVDGVEVHNAKTKPREEQYNSTYRVVSVLTVLHQDWLNGKEYKCKVSNKALAAPIEKTISKAKGQPREPQVYTLPPSRDELTKNQVSLTCLVKGFYPSDIAVEWESNGQPENNYKTTPPVLDSDGSFFLYSKLTVDKSRWQQGNVFSCSVLHEALHSHYTQKSLSLSPGKGGSDSWQEEVIKLCGRELVRAQIAICGKSTGGGEGGGEGGGEGGGQLYSALANKCCHVGCTKRSLARFC
1.8 nM	SEQ ID NO: 370 (Fc fusion) DKTHTCPPCPAPEAAGGPSVFLFPPKPKDTLMISRTPEVTCVVVDVSHEDPEVKFNWYVDGVEVHNAKTKPREEQYNSTYRVVSVLTVLHQDWLNGKEYKCKVSNKALAAPIEKTISKAKGQPREPQVYTLPPSRDELTKNQVSLTCLVKGFYPSDIAVEWESNGQPENNYKTTPPVLDSDGSFFLYSKLTVDKSRWQQGNVFSCSVLHEALHSHYTQKSLSLSPGKGGSDSWKEEVIKLCGRELVRAQIAICGKSTASDAAGANANAGARQLYSALANKCCHVGCTKRSLAEFC
